# Laboratory results taken from the DeepSol protein solubility set.
# Experiment: soluble on expression in E. coli; label from the status in PepcDB or PDB records
row,Sequence,soluble on expression in E. coli
1,MSLSEKTFPSHARVVIVGGGVMGVGLAYHLAHEGWGHDTVLLEKAELTSGSTWHAAGQITHSTSSYGLGKCVDYNIGLYSGGLEAETGQAVTWHGCGSFRLAYTEDEMDWLRHTLSVGRSLGFNIDLVSPQRVAELHPFYNLDGVLGALHTPDDGHVDPTNVTMALAAGARAKGVRIIRRCRASNITQLASGEWQVETDQGTITCEHVVNAGGTYARQMGEWSGLQLPMTSMTHHYFVTENVPEFEALDRELPVIRDDKKVSGYIRMEQKRGLIGIYEKANPNAVWLDECPWDYENWLFDADYDRVMPWLEESLNRMPVLAERGITREVHGAISHPPDGNPLIGPAPGVRNYWCCCGTQIGIGWGPGLTRELARWMVHGAADISMRDYDPRRFGSYATKEWQVIKAKEDYCLRHEIPFPHFNRLAGRPVKPSPLYDRLKSKGAVFEEVYGHERPRWFAKAGIAQHDHYGFGRTPVHDVVGDECRAVREAAGIMDISAFTKVELSGPEAETLLDRLVANRLPRKTGGIALTHMLNAAGRIELETTVVRLASDRFYLVCAAFFEQRLLDHLDRHRGTADVTVTLRSNDWAALTLNGPRSRDILATCTDAPLDNAAFPWLTAQEITVAGHRLWAFRMSYAGELGWEFHMPRDAALAVYDALWAAGAPLGLADYGSFAMNAMRMEKGFKGAGELTNEVTLAEADVLRFARTDKAYIGREATLAPARRFVCAYLEIAPDGAHDGHGGEAVLLQGKVVGSTASVAYGHSCGKILAFAYVRPEANVAGTEVEVVIAGTPRPARILGAPAYDPEGLLPRTDAKGIITITTDPNSSSVDKLAAALEHHHHHH,soluble
2,MSLSELINNREKRVQTLKEIILHLHRGEAPAAVRGRLAALIADVDASEVAAMEQELMAEGMSHQEVQSLCDLHADVLQDVMTRPATPMPLAPGHPVHQLRAENRALGAAAQTARQRVRELAALADEGRFDAERVEALRAFEVLWEVDRHYQRKEHLVFSVLERHGTTGPSKVMWGKDDEVRDLLKASLAALGEEGVSGAELKVVAETVLEPALSALEGMIYKEENILLPMTLGLFTAEDWGEIFRQSPEYGWCLVQPGTGYRPPEPRPVTDAVKLPPAQAVQFPSGTLSFEQLLGLFQALPVDLTFVDRDDRVAFFSEGPDRVFARSRAVIGREVKHCHPPKSVHVVERIVEDFKAGRQSVAEFWIDLHGRFVHIRYFAVRDAAGAYLGTLEVTQDLTRLRALEGERRLLAYDAGPAHDPITREGHHHHHH,soluble
3,MSLSEPILFVDDEQHVLNALQRVFSESGLETVFTRSPIEALELCRSKKFAVIVSDNMMPEMKGIELLTRIKEESPETVKCLLTAHADLDTALQAINSGEVFRFIVKPWRNEELYQAVSEGVARFREGHHHHHTDPNSSSVDKLAAALEHHHHHH,soluble
4,MSLSEYLGNKEAKQQMLKTIIKDLHQGKDFNQVKADFQNLIKDIDASEIANMEQALIGEGMNPEEITKLCDVHAAVFRDALEENEKPNLILGHPMYTIKHENEEIKKALEELDNYFSSNQMDAFKDRLSFFRDNLDRHYSKKENILFPYLERHNITGPPSVMWSVDDEIRDMGKILLTRVKEGDAGAIKTAYETMKNKISEMIFKEENILTPMLLETLTEEEWAEIKQEDEEFGVVFSKPHGNFWQPKAVTTKNISFEPTGEALSLDTGFLTLEQINTILTNIPIDITFVDKDDTVRYFSQGRERIFVRTKSIIGRKVQNCHPPDSVHMVEKILSDFKHGKHSTAEFWLELAEKFIHIRYFALRDEQGHYVGTMEVSQDVTGIRSLEGERRLLQYEDEGHHHHHH,soluble
5,MSLSFTPLHTTSEAFIEKALPWLEDRYFHIAYLNPNGYTAYPQGAFRHYLAFGSEAAIHVSDATRVFETWNEIKKGYTNEWIFVFASYDGKNSVEQLHTSKEAGIAFAAATFFIPEHVWEIQPDGILIHKGSGSSLVTEIQHAEPSTPVQQSDIFVKQVVSKESYFNAFDELQQIIAQGDAYEINYCIPFTAKGNISPAATYQRLNKKTPMPFSVYYKFNTEYILSASPERFIKKTGDTIISQPIKGTSKRGKSKAEDEMLKQQLGTSEKEQSENTMIVDLVRNDLSRTAVAGSVCVPELSGLYTFPNVHQLISTVQSTIDPACSSIDVIQQAFPMGSMTGAPKVNVMKFIDRIESMARGPFSGTVGYMDPHDNFDFNVLIRSIFYNSATQELFMEAGSAITSYAKAETEYEECLLKITPMIHILNNQEGHHHHHH,soluble
6,MSLSGKIRVDIPPCLANSLIMPRLPTFLHQYPGIALELCSSDRQVDLLREDFDCVVRTEPLHAPGILTRPLGKLRRVNCASPQYLARFGYPENLDDLASHAMVHYSLTPGVSSPGFAFETPHGMQWVKTGGMLTVNSTETWHTACLAGLGIIQTPRIAVREALRAGTLIEILPQYRAAPLPVTLHYPHRRNLSRRVHLFMVWLTETIKEAAEGHHHHHH,not soluble
7,MSLSHSIKPWHEACSKLARTSKPEAFNVDTLFAQLADDTNDTFYTVDPRWITQNAQQFSGCFPGTVLYAMKANPLVHVLEALSQGGINHFDVASLAEVQTVHNTLPNAVQYLMNPVKSRHCLHEAYYRHGVRSFVLDSEEELSKLRDVLPERDSTISMFVRYAPSESTAVYDLRGKFGASPALATQLVHQVAASTDWSLGLSFHVGSQAIEDGPWLAALDDADAIVRDTAQHVRHLDIGGGFPGNYLNSMGNTPDLVGRVCEHIQTSPTLKDLNLICEAGRGLVYGGMSLFARVLSRREHSVFCGAGIFGGLLSAQQWLQFPARVWRDAAPYAGSAEATFNIFGPTCDSMDRLAFPYSLASDIREGDWLEFQSTGAYSVSLRTPFNGFYADRIISLPSEGHHHHHH,soluble
8,MSLSINSREVLAEKVKNAVNNQPVTDMHTHLFSPNFGEILLWDIDELLTYHYLVAEVMRWTDVSIEAFWAMSKREQADLIWEELFIKRSPVSEACRGVLTCLQGLGLDPATRDLQVYREYFAKKTSEEQVDTVLQLANVSDVVMTNDPFDDNERISWLEGKQPDSRFHAALRLDPLLNEYEQTKHRLRDWGYKVNDEWNEGSIQEVKRFLTDWIERMDPVYMAVSLPPTFSFPEESNRGRIIRDCLLPVAEKHNIPFAMMIGVKKRVHPALGDAGDFVGKASMDGVEHLLREYPNNKFLVTMLSRENQHELVVLARKFSNLMIFGCWWFMNNPEIINEMTRMRMEMLGTSFIPQHSDARVLEQLIYKWHHSKSIIAEVLIDKYDDILQAGWEVTEEEIKRDVADLFSRNFWRFVGRNDHVTSVKVEQQTEGHHHHHH,soluble
9,MSLSKAKTLYEKIYDAHVVVAAPGETPILYIDRHLVHEVTSPQAFDGLREKGRPVRQVSKTFATMDHNVSTTTKDINASGEMARIQMQTLSKNCEEFGVTLYDINHKYQGIVHVMGPELGITLPGMTIVCGDSHTATHGAFGSLAFGIGTSEVEHVLATQTLKQGRAKTMKIEVRGKVAPGITAKDIVLAIIGKTTAAGGTGYVVEFCGEAIRDLSMEGRMTVCNMAIELGAKAGLIAPDATTFNYIKGRKFAPQGSDWDAAVDYWQTLKTDEDAQFDAVVTLEASEIKPQVTWGTNPGQVIAVDEPIPSPSQFADPVERSSAEKALAYMGLEAGKMLSDYKVDKVFVGSCTNSRIEDMRAAAAVAKGKKVASHVQALIVPGSEQVKAQAEAEGLDKIFIEAGFEWRLPGCSMCLAMNNDRLGPGERCASTSNRNFEGRQGRDGRTHLVSPAMAAAAAIAGHFVDIRQEGHHHHHH,soluble
10,MSLSKKIVIVGGVAGGASTAARLRRLDENNQIIMFERGPHVSFSNCCLPYYLSGKVENHEDLVLMTPEKFYSQYRIDARVYTEVVSINRKAKEVTVRNVVSGQEYTESYDKLVLSPGAKAIVPPIKGIEDVNVFTVRNVVDIAKLDSFIKDNNSKNISVIGGGFIGVEVAENLHEAGYNVTLIEAMDQIMKPFDYDMVQVLHKEMYDKGVNLIVGDKVSSFESGKVVLESGKKINSDAVVMAIGVAPETDLAREAGLEIGQTGAIKVNQNYLTNDKDIYAVGDAVEVYNSLTNSISRLPLAGPAQKQARAVADHIHGRPSRNSGYIGSSCVQIFDYNGASTGLTEGQIKAMNLSLNYDVVRVIPQDKVGLMPGSEPLHFKLIFEVPTGRILGAQAIGKGNADKRVDIIATLIKMGGTVEDLKDLELCYAPPFGTAKDVVNHAALVASNLLEGTFKQVYVHEVRDLVESGACIIDVREVSEYEAGHIKGAKNLPLSEIRDRLDEIPTDRPVYLHCRSAQRSYNACLALQHLGFDNIYNVSGGFMGISFYEYYNDKVQDREPIVTEYNFNEGHHHHHH,soluble
